This note sets out measurements from patent US20160152725A1 (Memorial Sloan Kettering, published 2016).

Broadly, the Kd is the free concentration of one partner at which half of the binding sites on the other are occupied at equilibrium, for simple one-to-one binding. Read a low Kd as tighter binding. The term koff denotes the rate constant with which the complex falls apart. A low value points to a long-lived complex. For orientation: kon means the second-order rate constant of association. A higher kon goes with fast association. By EC50 (read off the curve) is commonly meant the concentration giving half of the maximal effect. Higher therefore signals a less potent agent.

For test [1], the target named is HLA-A2 molecule on the surface of tumor cell lines (human). The test can be described thus: flow cytometry on MDA-MB-468(HTB-132) cells (Breast).
Test [2] has the same target. The test can be described thus: flow cytometry on JN-DSRCT cells (Desmoplastic small round cell tumor). For orientation: In flow cytometry, cells or beads pass a laser one at a time.
The target is the same in test [3]. Nature of the test: flow cytometry on HTB37-pp65/GFP cells (Colon).
For test [4] the target is unchanged. The test can be described thus: flow cytometry on U2 OS cells (Osteosarcoma).
Test [5] has the same target. The test can be described thus: flow cytometry on NCI-H345 cells (Small cell lung cancer).
Test [6] shares this target. The test can be described thus: flow cytometry on Colo 205 cells (Colon).
Test [7] shares this target. The test can be described thus: flow cytometry on OVCAR3-pp65 cells (Ovarian).
Test [8] shares this target. The test can be described thus: flow cytometry on BV-173 cells (Leukemia).
Test [9] shares this target. The test can be described thus: flow cytometry on OVCAR-3 cells (Ovarian).
The target is the same in test [10]. The test can be described thus: flow cytometry on SW480 cells (Colon).
The target is the same in test [11]. Nature of the test: flow cytometry on SKMEL-5 cells (Melanoma).
Test [12] has the same target. The test can be described thus: flow cytometry on SKNJB cells (NB).
Test [13] has the same target. The test can be described thus: flow cytometry on U87 cells (Glioblastoma).
For test [14] the target is unchanged. Nature of the test: flow cytometry on SKNLD cells (NB).
The target is the same in test [15]. The test can be described thus: flow cytometry on SKOV-3 cells (Ovarian).
For test [16] the target is unchanged. Nature of the test: flow cytometry on MCF-7 cells (Breast).
The target is the same in test [17]. The test can be described thus: flow cytometry on MDA-MB-231(HTB-26) cells (Breast).
Test [18] has the same target. The test can be described thus: flow cytometry on JMN cells (Mesothelioma).
Test [19] shares this target. The test can be described thus: flow cytometry on SKBR3 cells (Breast).
The target is the same in test [20]. The test can be described thus: flow cytometry on SKN-JC-1 cells (NB).
Test [21] has the same target. The test can be described thus: flow cytometry on THP-1 cells (Leukemia).
Test [22] shares this target. Nature of the test: flow cytometry on MDA-MB-361(HTB-27) cells (Breast).
Test [23] shares this target. Nature of the test: flow cytometry on SKHEP-1 cells (Liver).
Test [24] has the same target. The test can be described thus: flow cytometry on U251 cells (Glioblastoma).
Test [25] shares this target. The test can be described thus: flow cytometry on Molt-4 cells (Leukemia).
Test [26] shares this target. The test can be described thus: flow cytometry on LAN-1 cells (NB).
Test [27] shares this target. The test can be described thus: flow cytometry on NCI-H522 cells (Non-small cell lung cancer).
The target is the same in test [28]. Nature of the test: flow cytometry on BA25-17 cells (Leukemia).
For test [29] the target is unchanged. The test can be described thus: flow cytometry on SK-ES-1 cells (Ewing's sarcoma).
The target is the same in test [30]. Nature of the test: flow cytometry on K562-HLA-A2 cells (Leukemia).
The target is the same in test [31]. The test can be described thus: flow cytometry on SKN-JC-2 cells (NB).
Test [32] shares this target. Nature of the test: flow cytometry on BA25-69 cells (Leukemia).
Test [33] shares this target. Nature of the test: flow cytometry on Caco-2 (HTB-37) cells (Colon).
The target is the same in test [34]. The test can be described thus: flow cytometry on K562 cells (Leukemia).
Test [35] shares this target. The test can be described thus: flow cytometry on HepG2 cells (Liver).
In test [36] the target is T1, biotinylated HLA-A2/WT1126 (…) monomer (human, biotin at a specific biotinylation site at the C-terminus).
T1 construct: also called HLA-A2-WT1 monomer; WT1126/HLA-A2
The test can be described thus: SPR Biacore T100; biotinylated pMHC captured, antibody injected; 1:1 fit.
Procedure: Kinetics and affinities of various antibodies and WT1₁₂₆/HLA-A2 were analyzed by surface plasmon resonance technology using a Biacore T100 instrument (GE healthcare). Biotinylated WT1₁₂₆/HLA-A2 was captured by streptavidin-fusion protein on a sensor chip (CM5). A control reference surface was prepared for nonspecific binding and refractive index changes. For analysis of the kinetics of interactions, varying concentrations of antibodies were injected at flow rate of 30 μl/min using a running buffer containing 10 mM HEPES, 150 mM NaCl, 3 mM EDTA, and 0.05% Surfactant P-20 (pH 7.4). The association and dissociation phase data were fitted simultaneously to a 1:1 model by using BIAevaluation 3.2. All the experiments were done at 25° C.

Test [37] addresses T1, biotinylated HLA-A2/WT1126 (…) monomer. The test can be described thus: ELISA: wells coated with HLA-A2-WT1 ([..]) monomer, serially diluted scFv, HRP anti-Flag detection, OD 490 nm. Background: An ELISA detects its analyte on a solid surface through an enzyme-linked reagent.
Procedure: (§1) The specificity of individual phage clones, soluble scFv and scFv-Fc antibodies was assessed by ELISA at RT with indirectly coated HLA-A2/peptide complexes. Vinyl flat bottom microtiter plates (Thermo Fisher) were used for ELISA assays. Plates were initially coated overnight at 4° C. with BSA-biotin (10 g/ml; 50 μl/well). The next day, the contents were discarded and the plates incubated at RT with streptavidin (10 g/ml; 50 μl/well) for 1 h. The contents were discarded and the plates incubated with recombinant biotinylated HLA-A2/peptide complexes (5 μg/ml; 50 μl/well) at RT for 1 h. The plates were then incubated with 2% milk PBS (150 μl/well) at RT for 1 h. After blocking, the plates were washed 3 times with PBS and then incubated with bacterial supernatant from their respective HB2151 culture plate wells, purified scFv, or purified scFv-Fc at RT for 1 h. After the contents were discarded, the plates were washed 5 times with PBS, and then incubated with a horse radish peroxidase (HRP) conjugated mouse-anti-Flag tag antibody (1:5000 dilution, Sigma Aldrich) to detect the scFv, or a HRP conjugated goat-anti-human Fc antibody (0.5 μg/ml, Jackson Immunoresearch Laboratories) to detect the scFv-Fc. […]
Test [38] has as its target HLA-A2/WT1 187-195 (…) complex (human, biotin at a specific biotinylation site at the C-terminus). The test can be described thus: ELISA on wells coated with the named HLA-A2/peptide monomer, HRP anti-Flag detection, OD 490 nm.
Test [39] has as its target HLA-A2/WT1 235-243 (…) complex (human, biotin at a specific biotinylation site at the C-terminus). The test is described as above.
For test [40], the target named is T1, biotinylated HLA-A2/WT1126 (…) monomer. Nature of the test: ELISA: wells coated with HLA-A2-WT1 (…) monomer, serially diluted scFv, HRP anti-Flag detection, OD 490 nm.
Procedure: as §1
The next test has as its target T2, HLA-A2 on T2 cells (human).
T2 construct: No peptide added; also called T2 cells alone; T2 cells without peptide
Nature of the test: T2 cells pulsed with peptide, staining with anti-HLA-A2 BB7.2.

As to BB7.2 (antibody), the Ratio (BB7.2/isotype) of mean fluorescence intensity in test [1] was 1.1; in test [2] it was 5.1; in [3], 10.9; in test [4], 21.7; in test [5] it was 6.2; in test [6] it was 32.6. For the same molecule, the Ratio (BB7.2/isotype) of mean fluorescence intensity in test [7] is 10; in [8] it was 209; in [9] it was 7.8; in test [10] it was 40.5; in test [11], 32.1; in test [12], 6.4. In addition, the Ratio (BB7.2/isotype) of mean fluorescence intensity was 77.5 in test [13]; 0.9 in [14]; 1 in [15]; 9.9 in test [16]; 111 in [17]; 165 in test [18]. Also, the Ratio (BB7.2/isotype) of mean fluorescence intensity amounted to 1.1 in test [19]; 86.8 in [20]; 53.9 in [21]; 0.9 in test [22]; 28.3 in [23]; 16.2 in test [24]. Also, the Ratio (BB7.2/isotype) of mean fluorescence intensity in test [25] came to 1.1; in test [26], 4.5; in test [27] it was 15.8; in [28], 118; in test [29], 7.7; in test [30], 28.8. Further, the Ratio (BB7.2/isotype) of mean fluorescence intensity in test [31] was determined as 53.3; in test [32], 114; in test [33], 26.8; in test [34] it was 1.1; in [35], 14.4.

B1: Q1L scFv (scFv)
scFv: EVQLLESGGGLVQPGGSLRLSCAASGFTFSSYAMSWVRQAPGKGLEWVSLIDPWGQETLYADSVKGRFTISRDNSKNTLYLQMNSLRAEDTAVYYCAKLTGRFDYWGQGTLVTVSSGGGGSGGGGSGGGGSTDIQMTQSPSSLSASVGDRVTITCRASQSISSYLNWYQQKPGKAPKLLIYSASQLQSGVPSRFSGSGSGTDFTLTISSLQPEDFATYYCQQGPGTPNTFGQGTKVEIKRA
notes: Clone45 with VH-Q50L; Soluble scFv; also called scFv Q1L
Turning to B1, in [36], binding was put at a Kd of 58.3 nM, the koff came to 0.0055 s⁻¹ and the kon was 94300 M⁻¹ s⁻¹.

B2: S3.3 scFv (scFv)
scFv: EVQLLESGGGLVQPGGSLRLSCAASGFTFSSYAMSWVRQAPGKGLEWVSLIDPWGQETLYADSVKGRFTISRDNSKNTLYLQMNSLRAEDTAVYYCAKLTGRFDYWGQGTLVTVSSGGGGSGGGGSGGGGSTNIQMTQSPSSLSASVGDRVTITCRASQSISSYLNWYQQKPGKAPKLLIYSASLLQSGVPSRFSGNGSGTDFTLTISSLQPEDFATYYCQQGPGTPNTFGQGTKVEIKRA
notes: Soluble scFv, Ni-NTA purified, detected with anti-Flag
B2: in test [37], the “EC50 (read off the curve)” value was ~40 nM. Also, the binding result in [38] and in test [39] was “no binding” each time. This molecule registered a Kd in [36] of 2.43 nM.

B3: S3.6 scFv (scFv)
scFv: EVQLLESGGGLVQPGGSLRLSCAASGFTFSSYAMSWVRQAPGKGLEWVSLIDPWGQETLYADSVKGRFTISRDNSKNTLYLQMNSLRAEDTAVYYCAKLTGRFDYWGQGTLVTVSSGGGGSGGGGSGGGGSTDIQMTQSPSSLSASVGDRVTITCRASQSISNYLNWYQQKPGKAPKLLIYSASQLQSGVPSRFSGSGSGTVFTLTISSLQPEDFATYYCQQGPGTPNTFGQGTKVEIKRA
notes: as for B2
Consider B3, for which the binding result in [38] and in test [39] was “no binding” in each case. Also, in test [36], the affinity, expressed as Kd, was 14.1 nM.

B4: S3.1 scFv (scFv)
scFv: EVQLLESGGGLVQPGGSLRLSCAASGFTFSSYAMSWVRQAPGKGLEWVSLIDPWGQETLYADSVKGRFTISRDNSKNTLYLQMNSLGAEDTAVYYCAKLTGRFDYWGQGTLVTVSSGGGGSGGGGSGGGGSTDIQMTQSPSSLSASVGDRVTITCRASQSISSYLNWYQQKPGKAPKLLIYSASQLQSGVPSRFSGSGSGTDFTLTISNLQPEDFATYYCQQGPGTPNTFGQGTKVEIKRA
notes: as for B2
B4: the “EC50 (read off the curve)” value in [37] was ~60 nM. Besides, the binding result in test [38] and in test [39] was “no binding” throughout. The molecule further showed a Kd in test [36] of 12.9 nM.

B5: Q2L scFv (scFv)
scFv: EVQLLESGGGLVQPGGSLRLSCAASGFTFSSYAMSWVRQAPGKGLEWVSLIDPWGQETLYADSVKGRFTISRDNSKNTLYLQMNSLRAEDTAVYYCAKLTGRFDYWGQGTLVTVSSGGGGSGGGGSGGGGSTDIQMTQSPSSLSASVGDRVTITCRASQSISSYLNWYQQKPGKAPKLLIYSASLLQSGVPSRFSGSGSGTDFTLTISSLQPEDFATYYCQQGPGTPNTFGQGTKVEIKRA
notes: Clone45 with VH-Q50L and VL-Q53L; Soluble scFv; also called scFv Q2L
As for B5, the “EC50 (read off the curve)” value in test [40] was ~100 nM. The binding result in test [38] and in test [39] was “no binding” each time. The same molecule showed a Kd in test [36] of 3.08 nM.

Regarding RMFPNAPYL (also called WT1 peptide) [WT1126 peptide (RMFPNAPYL) by itself], the binding result with HLA-A2 on T2 cells was “binds”.

On to RMFPAAPYL (also called A5) [WT1126-Asn5Ala peptide], for which, in the test with HLA-A2 on T2 cells, the binding result is recorded as “binds”.

As for AMFPNAPYL (also called A1) [WT1126-Arg1Ala peptide], the binding result in the test with HLA-A2 on T2 cells is on record as “binds”.

Take RMFPNAPAL (also called A8) [WT1126-Tyr8Ala peptide]: the binding result with HLA-A2 on T2 cells is “binds”.
